First the molecules themselves.
B1: glmS ribozyme (parent)
chain: AUAAAAGCGCCAGAACUACAGAAAUGUAGUUGACGAGGAGGAGGUUUAUCGAAUUUUCGGCGGAUGCCUCCAAA

Common to all, as to details: with glucosamine-6-phosphate
Variants of B1 are the subject of data set [1]. The data set can be described thus: kcat; higher = faster cleavage; RNA array. The essentials:
(§1)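 E. coli RNA polymerase transcribed barcoded ribozyme variants in situ on sequenced MiSeq chips, which were tracked via a hybridised Cy3 probe at 37 °C. Tiles were imaged over ~14 h after glucosamine-6-phosphate (40 μM to 10 mM) in HEPES/KCl/Mg(OAc)2 buffer was flowed in. Normalised per-tile medians were fit to one- or two-exponential decays for kobs, and kcat and KM came from weighted Michaelis–Menten fits.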

The variants in data set [2] derive from B1. The data set can be described thus: self-cleavage kobs at 2500 uM GlcN6P; higher = faster cleavage; RNA array. An outline of the steps: as §1
Data set [3] covers variants of B1. The data set can be described thus: self-cleavage kobs at 10000 uM GlcN6P; higher = faster cleavage; RNA array. An outline of the steps:
as §1

Data set [4] covers variants of B1. The data set can be described thus: KM; higher = weaker cofactor use; RNA array. The essentials: as §1
Data set [5] covers variants of B1. The data set is described as follows: self-cleavage kobs at 40 uM GlcN6P; higher = faster cleavage; RNA array. An outline of the steps:
as §1

The variants in data set [6] derive from B1. The data set can be described thus: self-cleavage kobs at 160 uM GlcN6P; higher = faster cleavage; RNA array. An outline of the steps: as §1
Variants of B1 are the subject of data set [7]. The data set can be described thus: self-cleavage kobs at 640 uM GlcN6P; higher = faster cleavage; RNA array. An outline of the steps:
as §1

± gives the standard error. For some assays here: This sample holds only a part of the variants without activity.

Usually kcat stands for the number of substrate molecules converted per active site and unit of time at saturation. For the variant A15G C58U, the kcat in the data set with glucosamine-6-phosphate [1] is 0.000166 ± 4e-05 s⁻¹. For the same variant, the “self-cleavage kobs at 2500 uM GlcN6P” value with glucosamine-6-phosphate [2] turned out to be 2.52e-05 ± 1.2e-05 s⁻¹. For the same variant, the “self-cleavage kobs at 10000 uM GlcN6P” value with glucosamine-6-phosphate [3] amounted to 7.17e-05 ± 9.6e-06 s⁻¹.
Broadly, the KM is the concentration of substrate that gives half-maximal velocity. As for U49A A64G, the kcat in the data set with glucosamine-6-phosphate [1] amounted to 2.04e-05 ± 1.6e-06 s⁻¹. Also, the KM with glucosamine-6-phosphate [4] was 2090 ± 850 µM.
With G37A G59A, the catalytic constant (kcat) with glucosamine-6-phosphate [1] is less than 1e-05 s⁻¹. Besides, the “self-cleavage kobs at 40 uM GlcN6P” value with glucosamine-6-phosphate [5] is less than 1e-05 s⁻¹.
As to U57G C67U, the kcat with glucosamine-6-phosphate [1] was determined as 3.05e-05 ± 1e-05 s⁻¹. In addition, in the data set with glucosamine-6-phosphate [2], the “self-cleavage kobs at 2500 uM GlcN6P” value was 4.91e-05 ± 1.5e-05 s⁻¹. In addition, in the data set with glucosamine-6-phosphate [3], the “self-cleavage kobs at 10000 uM GlcN6P” value was determined as 2.19e-05 ± 1e-05 s⁻¹.
As to A6G A53G, the catalytic constant (kcat) with glucosamine-6-phosphate [1] was found to be 0.000509 ± 6.7e-05 s⁻¹. In the data set with glucosamine-6-phosphate [4], the Michaelis constant (KM) came to 2390 ± 600 µM. Also, the “self-cleavage kobs at 160 uM GlcN6P” value in the data set with glucosamine-6-phosphate [6] amounted to 3.62e-05 ± 1.3e-05 s⁻¹. In the data set with glucosamine-6-phosphate [7], the “self-cleavage kobs at 640 uM GlcN6P” value amounted to 9.71e-05 ± 1.5e-05 s⁻¹. Moreover, the “self-cleavage kobs at 2500 uM GlcN6P” value with glucosamine-6-phosphate [2] turned out to be 0.000306 ± 4.1e-05 s⁻¹. In the data set with glucosamine-6-phosphate [3], the “self-cleavage kobs at 10000 uM GlcN6P” value amounted to 0.000395 ± 4.4e-05 s⁻¹.
On to A39G U56A, for which the kcat with glucosamine-6-phosphate [1] was found to be 0.0171 ± 0.0023 s⁻¹. In addition, the Michaelis-Menten constant (KM) in the data set with glucosamine-6-phosphate [4] came to 1670 ± 340 µM. In addition, the “self-cleavage kobs at 40 uM GlcN6P” value with glucosamine-6-phosphate [5] was 0.000348 ± 6.9e-05 s⁻¹. Besides, the “self-cleavage kobs at 160 uM GlcN6P” value with glucosamine-6-phosphate [6] is 0.00162 ± 0.00029 s⁻¹. For the same variant, the “self-cleavage kobs at 640 uM GlcN6P” value with glucosamine-6-phosphate [7] is 0.0049 ± 0.00073 s⁻¹. For the same variant, in the data set with glucosamine-6-phosphate [2], the “self-cleavage kobs at 2500 uM GlcN6P” value is 0.0133 ± 0.0025 s⁻¹. The “self-cleavage kobs at 10000 uM GlcN6P” value with glucosamine-6-phosphate [3] stood at 0.0137 ± 0.0019 s⁻¹.
Take U49G C50U A64U C67G C70A: the turnover number (kcat) with glucosamine-6-phosphate [1] turned out to be 3.56e-05 ± 1.6e-05 s⁻¹. Moreover, the “self-cleavage kobs at 640 uM GlcN6P” value in the data set with glucosamine-6-phosphate [7] worked out at 4.15e-05 ± 2e-05 s⁻¹.
Take A12U A48U C70A: the kcat with glucosamine-6-phosphate [1] was determined as 5.26e-05 ± 1.7e-05 s⁻¹. Moreover, in the data set with glucosamine-6-phosphate [2], the “self-cleavage kobs at 2500 uM GlcN6P” value amounted to 6.36e-05 ± 2e-05 s⁻¹. Moreover, the “self-cleavage kobs at 10000 uM GlcN6P” value with glucosamine-6-phosphate [3] is 4.16e-05 ± 1.5e-05 s⁻¹.
With A33G G38C, the kcat with glucosamine-6-phosphate [1] is less than 1e-05 s⁻¹. In addition, in the data set with glucosamine-6-phosphate [5], the “self-cleavage kobs at 40 uM GlcN6P” value is less than 1e-05 s⁻¹. The “self-cleavage kobs at 160 uM GlcN6P” value in the data set with glucosamine-6-phosphate [6] was less than 1e-05 s⁻¹.
On to A15C U47C, for which the catalytic constant (kcat) with glucosamine-6-phosphate [1] turned out to be 0.000622 ± 8.7e-05 s⁻¹. For the same variant, the Michaelis constant (KM) with glucosamine-6-phosphate [4] amounted to 3550 ± 830 µM. The “self-cleavage kobs at 640 uM GlcN6P” value in the data set with glucosamine-6-phosphate [7] stood at 0.000108 ± 2e-05 s⁻¹. Further, the “self-cleavage kobs at 2500 uM GlcN6P” value with glucosamine-6-phosphate [2] turned out to be 0.000244 ± 4.5e-05 s⁻¹. In addition, the “self-cleavage kobs at 10000 uM GlcN6P” value with glucosamine-6-phosphate [3] was 0.000465 ± 7.5e-05 s⁻¹.
On to C16U C70G, for which the kcat with glucosamine-6-phosphate [1] stood at 0.000316 ± 9.7e-05 s⁻¹. Besides, in the data set with glucosamine-6-phosphate [5], the “self-cleavage kobs at 40 uM GlcN6P” value worked out at 4.19e-05 ± 6.7e-06 s⁻¹. For the same variant, the “self-cleavage kobs at 160 uM GlcN6P” value in the data set with glucosamine-6-phosphate [6] was 9.18e-05 ± 8.2e-06 s⁻¹. Further, the “self-cleavage kobs at 640 uM GlcN6P” value with glucosamine-6-phosphate [7] is 0.000186 ± 1.6e-05 s⁻¹. Further, in the data set with glucosamine-6-phosphate [2], the “self-cleavage kobs at 2500 uM GlcN6P” value came to 0.000619 ± 0.00016 s⁻¹. Also, the “self-cleavage kobs at 10000 uM GlcN6P” value with glucosamine-6-phosphate [3] turned out to be 0.000497 ± 0.00011 s⁻¹.
In the case of G29A C68U, the kcat with glucosamine-6-phosphate [1] was determined as 0.000627 ± 0.0001 s⁻¹. For the same variant, the KM in the data set with glucosamine-6-phosphate [4] amounted to 1720 ± 550 µM. Besides, the “self-cleavage kobs at 40 uM GlcN6P” value with glucosamine-6-phosphate [5] was found to be 2.8e-05 ± 8.3e-06 s⁻¹. For the same variant, in the data set with glucosamine-6-phosphate [6], the “self-cleavage kobs at 160 uM GlcN6P” value worked out at 6.11e-05 ± 8.5e-06 s⁻¹. Further, in the data set with glucosamine-6-phosphate [7], the “self-cleavage kobs at 640 uM GlcN6P” value stood at 0.000122 ± 2.6e-05 s⁻¹. Also, in the data set with glucosamine-6-phosphate [2], the “self-cleavage kobs at 2500 uM GlcN6P” value came to 0.000374 ± 4.7e-05 s⁻¹. For the same variant, in the data set with glucosamine-6-phosphate [3], the “self-cleavage kobs at 10000 uM GlcN6P” value came out at 0.000549 ± 5.1e-05 s⁻¹.
Regarding G37C C50U, the turnover number (kcat) in the data set with glucosamine-6-phosphate [1] is less than 1e-05 s⁻¹. The “self-cleavage kobs at 10000 uM GlcN6P” value with glucosamine-6-phosphate [3] was less than 1e-05 s⁻¹.
C58A C67G: the catalytic constant (kcat) in the data set with glucosamine-6-phosphate [1] came to 9.61e-05 ± 2.2e-05 s⁻¹. In the data set with glucosamine-6-phosphate [6], the “self-cleavage kobs at 160 uM GlcN6P” value was 3.39e-05 ± 1.3e-05 s⁻¹. For the same variant, the “self-cleavage kobs at 640 uM GlcN6P” value in the data set with glucosamine-6-phosphate [7] amounted to 6.98e-05 ± 9.8e-06 s⁻¹. The “self-cleavage kobs at 2500 uM GlcN6P” value with glucosamine-6-phosphate [2] was 6.08e-05 ± 1e-05 s⁻¹. In addition, in the data set with glucosamine-6-phosphate [3], the “self-cleavage kobs at 10000 uM GlcN6P” value is 0.000124 ± 1.3e-05 s⁻¹.
Regarding C58G A64G, in the data set with glucosamine-6-phosphate [1], the catalytic constant (kcat) was 0.000129 ± 2.7e-05 s⁻¹. For the same variant, in the data set with glucosamine-6-phosphate [7], the “self-cleavage kobs at 640 uM GlcN6P” value came to 6.72e-05 ± 2.7e-05 s⁻¹. Moreover, in the data set with glucosamine-6-phosphate [2], the “self-cleavage kobs at 2500 uM GlcN6P” value is 6.74e-05 ± 1.2e-05 s⁻¹. Moreover, in the data set with glucosamine-6-phosphate [3], the “self-cleavage kobs at 10000 uM GlcN6P” value amounted to 0.000115 ± 1.7e-05 s⁻¹.
On to G44C A53U, for which the turnover number (kcat) in the data set with glucosamine-6-phosphate [1] was found to be 7.99e-05 ± 9.3e-07 s⁻¹. Further, the KM with glucosamine-6-phosphate [4] came to 1170 ± 57 µM. Besides, the “self-cleavage kobs at 2500 uM GlcN6P” value with glucosamine-6-phosphate [2] came out at 5.52e-05 ± 1.4e-05 s⁻¹. In addition, the “self-cleavage kobs at 10000 uM GlcN6P” value with glucosamine-6-phosphate [3] was found to be 7.13e-05 ± 1.1e-05 s⁻¹.
In the case of C16G G66A, the kcat with glucosamine-6-phosphate [1] was 0.00183 ± 0.0004 s⁻¹. Besides, in the data set with glucosamine-6-phosphate [4], the KM worked out at 1140 ± 380 µM. Also, the “self-cleavage kobs at 40 uM GlcN6P” value with glucosamine-6-phosphate [5] is 7.41e-05 ± 1.1e-05 s⁻¹. The “self-cleavage kobs at 160 uM GlcN6P” value with glucosamine-6-phosphate [6] amounted to 0.000199 ± 5.6e-05 s⁻¹. In addition, the “self-cleavage kobs at 640 uM GlcN6P” value in the data set with glucosamine-6-phosphate [7] was 0.000593 ± 8.9e-05 s⁻¹. Also, in the data set with glucosamine-6-phosphate [2], the “self-cleavage kobs at 2500 uM GlcN6P” value stood at 0.00111 ± 0.00019 s⁻¹. Besides, the “self-cleavage kobs at 10000 uM GlcN6P” value with glucosamine-6-phosphate [3] was 0.00218 ± 0.00038 s⁻¹.

The record behind these values is the supplement of paper PMC7125110.
